Where “and” joins values, the source holds several entries; their conditions need not be identical. Equal values may be shown once. Values belong to the molecule of their own block, whether it stands above or below them.
Experiments:
[1] = biological target: 6xHis-Rdh54S852A-mCherry (S. cerevisiae); assay: single-molecule fluorescence intensity of clusters (TIRF, DNA curtains); as the cluster size estimate, but 1 nM Rdh54-mCherry mixed with 0.1 or 10 nM GFP-Rad53 or 10 nM GFP-Rad53D339A before injection onto dsDNA curtains
[2] = biological target: 6xHis-Rdh54S852A-mCherry (S. cerevisiae); assay: single-molecule fluorescence intensity of clusters (TIRF, DNA curtains); Rdh54-mCherry clusters bound to dsDNA; background-subtracted cluster intensity divided by the mean intensity drop of one fluorophore; estimated molecules per cluster
[3] = biological target: 6xHis-Rdh54T851A-mCherry (S. cerevisiae); assay: single-molecule fluorescence intensity of clusters (TIRF, DNA curtains); as the cluster size estimate, but 1 nM Rdh54-mCherry mixed with 0.1 or 10 nM GFP-Rad53 or 10 nM GFP-Rad53D339A before injection onto dsDNA curtains
[4] = biological target: 6xHis-Rdh54T851AS852A-mCherry (S. cerevisiae); assay: single-molecule fluorescence intensity of clusters (TIRF, DNA curtains); Rdh54-mCherry clusters bound to dsDNA; background-subtracted cluster intensity divided by the mean intensity drop of one fluorophore; estimated molecules per cluster
[5] = biological target: 6xHis-Rdh54-mCherry (S. cerevisiae) (UniProt P38086)
[6] = biological target: the molecule itself; assay: single-molecule photobleaching step counting (TIRF, DNA curtains); Rdh54-mCherry bound to double-tethered lambda dsDNA; 561 nm laser unshuttered at 25% power, 200 ms integration; steps counted for smaller groups

Molecule: 6xHis-Rdh54T851A-mCherry (natural protein)
- median estimated molecules per cluster with 10 nM GFP-Rad53 (molecules per cluster) [3]: 12.1

Molecule: 6xHis-Rdh54T851A (unlabeled) (natural protein)
- translocation rate on dsDNA of WT Rdh54 mixed with equimolar unlabeled Rdh54T851A (translocase poisoning) [5]: 23 bp/s

B1: 6xHis-Rdh54-mCherry (natural protein, S. cerevisiae, UniProt P38086 35-958, looked up)
chain: MQIPKYENKPFKPPRRVGSNKYTQLKPTATAVTTAPISKAKVTVNLKRSISAGPTLNLAKKPNNLSSNENTRYFTIMYRKPTTKKHKTWSGDGYATLKASSDKLCFYNEAGKFLGSSMLPSDSDSLFETLFKAGSNEVQLDYELKENAEIRSAKEALSQNMGNPSPPTTSTTETVPSTKNDGGKYQMPLSQLFSLNTVKRFKSVTKQTNEHMTTVPKTSQNSKAKKYYPVFDVNKIDNPIVMNKNAAAEVDVIVDPLLGKFLRPHQREGVKFMYDCLMGLARPTIENPDIDCTTKSLVLENDSDISGCLLADDMGLGKTLMSITLIWTLIRQTPFASKVSCSQSGIPLTGLCKKILVVCPVTLIGNWKREFGKWLNLSRIGVLTLSSRNSPDMDKMAVRNFLKVQRTYQVLIIGYEKLLSVSEELEKNKHLIDMLVCDEGHRLKNGASKILNTLKSLDIRRKLLLTGTPIQNDLNEFFTIIDFINPGILGSFASFKRRFIIPITRARDTANRYNEELLEKGEERSKEMIEITKRFILRRTNAILEKYLPPKTDIILFCKPYSQQILAFKDILQGARLDFGQLTFSSSLGLITLLKKVCNSPGLVGSDPYYKSHIKDTQSQDSYSRSLNSGKLKVLMTLLEGIRKGTKEKVVVVSNYTQTLDIIENLMNMAGMSHCRLDGSIPAKQRDSIVTSFNRNPAIFGFLLSAKSGGVGLNLVGASRLILFDNDWNPSVDLQAMSRIHRDGQKKPCFIYRLVTTGCIDEKILQRQLMKNSLSQKFLGDSEMRNKESSNDDLFNKEDLKDLFSVHTDTKSNTHDLICSCDGLGEEIEYPETNQQQNTVELRKRSTTTWTSALDLQKKMNEAATNDDAKKSQYIRQCLVHYKHIDPARQDELFDEVITDSFTELKDSITFAFVKPGEICLREQ
notes: Rdh54, S. cerevisiae DNA translocase; Name printed as 6xHis-Rdh54-mCherry, plasmid pET15-6xHis-Rdh54; also called WT-Rdh54; WT; source: E. coli Rosetta 2 BL21 (DE3), purified (Ni-NTA, SP cation exchange, S300 SEC)
- stoichiometry N [6]: 2 and 4 and 3

The next lines start with the values.

- median estimated molecules per cluster with 10 nM GFP-Rad53 (molecules per cluster) [1]: 5.7
- median estimated molecules per cluster (molecules per cluster) [2]: 4.22
Molecule: 6xHis-Rdh54S852A-mCherry (natural protein)

- median estimated molecules per cluster (molecules per cluster) [4]: 5.1
Molecule: 6xHis-Rdh54T851AS852A-mCherry (natural protein)
